Laboratory results: the nanobody polyreactivity screen of Harvey et al. (2022)

Assay: yeast display, Sf9 membrane polyspecificity reagent, FACS + sequencing; frameworks hold sequencing errors
Outline: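 Nanobodies came from a synthetic yeast display library in Saccharomyces cerevisiae BJ5465, induced with galactose for 36–48 hours and stained for 1 hour at 4 °C with 10% biotinylated, detergent-solubilized Sf9 membrane reagent. Cells were enriched on streptavidin microbeads and then FACS-sorted, with low and high (top ~1%) gates set on anti-HA fluorescence for expression and streptavidin fluorescence for reagent binding. Each polyreactivity label reflects the gate a clone came from. Genes were amplified by colony PCR, sequenced by MiSeq 2 × 250 and filtered by CDR length.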

| Sequence | polyreactivity (PSR sort gate) |
| --- | --- |
| QVHLVESGGGLVQAGGSLRLSCAASGRTFNVYAMGWYRQAPGKERELVASISSSDTTNYADSVKGRFTISRDNAKNTVYLQMNSLKPEDTAVYYCAADYTPDLLSKVDYWGQGTQVTVSS | low polyreactivity |
| QVQLVESGGGLVHAGGSLRLSCAASGFTFGPYAMGWYRQAPRKERELVAAITGSGGITYYADSVKGRFTISRDNAKNTVYLQKNSLKPEDTAVYYCAAEYPYVYGTYSDSYTEYDYWGQGTQVTVSS | low polyreactivity |
| QVQLVESGGGLVQAGGSLRISSAASGSTFFRYDLGWYRPAPGKEWELVAAITASGTRTYYADSVKGRFTISRDNAKNTVYLQMNSLKPEDTAVYYCAADSRRYGYDYWGQGYQVTVSS | high polyreactivity |
| QVQLVESGGGLVQAGGSLRLRCAASGSIFKYYAMGWYRQAPGTERELVAAITWSGTRTYYADSVKGRFTISRDNAKNTVYVQMNSLKPEDTAVYYCNAPRYLYSAGRFNYWGQGTQVTVSS | high polyreactivity |
| QDQLVESGGGLVQAGCSLRLSCDASGSTSYGYAMGWYRQAPGKERELVASISYSGSSTYYADSVKGRFTFSRDNAKNTVYLQMNSLKPEDTAVYYCNAKVYPCVGPKHRYDYWGQCTQVTVSS | low polyreactivity |
| QVQLVESGGGLVQAGGSLRLSCAASGSIFKWYAMGWYRQAPGKERELVAVISSGGNTYYADSVKGRFTISRDNAKNTVYLQMNSLKPEDTAVYYCAARVTSHMYYWGQGTQVTVSS | high polyreactivity |
| QVQLVESGGGLVQAGGSLRLSCAASGRTFSTYAMGWYRQAPGKERELVAAIDSGGGSTYYADSVKGRFTISRDNAKNTVYLQMNSLKPEDTAVYYCARDHYAPLARLRYDYWGQGTQVTVSS | low polyreactivity |
| QVQLVESGGGLVQAGGSLRLSCAASGSIFDWNSMGWYRQAPGKERELVATISWDGGSTYYADSVKGRFTISLDNAKNTVYLQMNSLKPEDTAVYYCATVFTGKPAYYARTKYDYWGQGTQVTVSS | low polyreactivity |
| QVQLVESGGGLVQAGGSLRLSCAASGRTFRPNAMGWYRQAPGNERELVASITRRGGTTYYADSVKGGFTISRDNAKNTVYLHMNSLKPEDTAVYYCNAPPGYSSTRNGYWGQGTQVTVSS | high polyreactivity |
| QVQLVESVGGLVQAGGSLRLSCAASGSIFSYYAMGWYRQAPGKERELVAAITSSGDSTYYADSVKGRFTISRDNAKNTVYLQINSLKPEDTAVYYCAAGILDLKLYFSSYDYWGQGTQVTVSS | low polyreactivity |
| QVQLVESGGGLVQAGGSLRLSCAASGIIFWRYAMGWYRQAPGKERELVASISWSGGSTSYADSVKGRFTISRDNAKNTVYLQMNSLKPEDTSVYYCAAVYYYRRRYYYWGQGTQVTVSS | high polyreactivity |
| QVQLVESGGGLVQAGGSLRLSCAASGRTFWGNAMGWYRQAPGKERELVAAIRRGGRTNYADSVKGRFTISRDNAKNTVYLQMNSLKPEDTAVYYCNALYAWSWPRGYDYWGQGTQVTVSS | high polyreactivity |
| QVQLVESGGGLVQAGGSLRLSCAASGRTSRFDAMGWDIEAPGKERELVARITTRGGSTYYADSVKGRFTISRDNAKNTVYLQMNSLKPEDTAVYFCNAKVTRGDVGGRFEYWGQGTQVTVSS | high polyreactivity |
| QVQLVESGGGLVQAGGSLRLSCAASGRIFNYYAMGWYRQAPGKERELVAAINSGGSTYADSVKGRFTISRDNAKNTVYLQMNSLKPEDTAVYYSAKDGQLQSGRERPSGYDHWGQGTQVTVSS | low polyreactivity |
| QVQLVESGGGLVQAGGSLRLSCAASGRILVWYAMAWYRQAPGKERELVASISSTGGSTYYADSVKGRFTISRDNAKNTVYLQMNSLKPEDTAVYYCAAVIRSQDGRGYDYWGQGTQVTVSS | high polyreactivity |
| QVQLVESGGGLVQEGGSLRLICSASGIILGPYAMGWYRQAPGKESELVSAISWRGGSTYYADSVKGRFTISRDNAKNTVYLQMNSLKPEDTAVYYCATASRTSRTGWAVYYWGQGTQVTVSS | high polyreactivity |
| HVLLVESGGGLVQAGGSLLLSCAASGSPFYTNAMVGFRKAPGKEREVVASITDGGDSTQYADSVKGRFTISRDYAKNTVYLQMNSLKPEDTAVYYCAVDYHYFQEYDTWGQGTQVTVSS | low polyreactivity |
| QVQLVESGGGLVQAGGSLRLSCAASGFTFGENAMGWYRQAPGKEWELVATISDSGDSTYYADSVKGRFTISRDNAKNTVYLLMNSLKPEDTAVYDCNAEQVCYTYGRYPEWYLYGYWGQGTQVTVSS | low polyreactivity |
| QVQLVESGGGLVQAGGSLRISCAASGRIFVVYVMGWYRQAPGKEREFVAAITWGGGNTYYADSVKGRFTISRDNAKNTVYLQMNSLKPEDTAVYYCNAVWYWGDMDYWGQGTQVTVSS | low polyreactivity |
| QGQLVESRGGLVQAGGSLRLSCAASGFNLAYYAMGWYRQAPGKERELVAAISIGSSTDYADSVKGRFTISRDNAKNTVYLQMNSLKPEDTAVFYCAKRGPQVWTFDYDSWGQGTQVTVSS | low polyreactivity |
| QVQLVESGGGLVQAGGSLRLSCAASGIIFYYYVLGWYRQAPGKERELVAAISARGGSTTYADSVKGRFTISRDNAKNTVYLQMISLKPEDTAVYYCAADVSYWRHGYQLSYDYWGQVTQVTVSS | high polyreactivity |
| QVQLVESRGGLVQAGGSLRLSFPASGFTQEFYAMGWYRQAPGKERELVASISSGGRTNYADSVKGRFTISRDNAKYTVYLQMNSLKPEDTAVYYFAAEYRSWGRYRYRFNYWGQGTQVTVSS | high polyreactivity |

| Sequence | polyreactivity (PSR sort gate) |
| --- | --- |
| QVQLVESGGGLVQAGGSLRLSCAASGSIFEVNAMGWYRQAPGKERELVAGISNADSTNYADSVKGRFTISRDNAKNTVYLQMNSLKPEDTAVYYCATDLYRDHPKDLLGPEYDYWGQGTQVTVSS | low polyreactivity |
| QVQLVESGGGLVQAGGSLRLSCAASGTYYLYAMGWYRQAPRKERELVAAISGSGSTNYADSVKGRFTISRDNAKNTVYLQMNSLKPEDTAVYYCAAYQRYVSVTGARYEYDYWGQGTQVTVSS | low polyreactivity |
| QVKLLDSGGGLVQAGGSLRLTSAASGRIFYTNAMGWYRQEPGKERELVAVISWGGDTTYYADSVKGRFTISRDNAKNTVYLQMTSLKPEDTAVYYCNADWGATYEIYDSWGQGTQVTVST | low polyreactivity |
| QVQLVESGGGLVQAGGSLRLSCAASGSIFVKYAMGWYRQAPGKERELVASITGRGGSTYYADSVKGRFTISRDNAKNTVYLQMNSLKPEDTAVYYCAARVASRHGWHNYWGQGSQVTVSS | high polyreactivity |
| QVQLVESGGGLVQAGGSLSLSCAASGRIFTYYAMGWYRQAPGKERELVAAINWGVVTTYYADSVKGRFTISRDNAKNTVYLQMNSLKPEDTAVYYCAADWFAANYYVNPVSALDYWGQGTQVTVSS | low polyreactivity |
| QVQLVESGGALVQAGGSLRLSCAASGRTFWDYAMGWYREAPGKERELVAAITWGGGSTYYADSVKGRFTISRDNAKNTVYLQMNSLKPVDTAVYYCAAGRGRHTYNYWGQGTQVTVTS | low polyreactivity |
| QVQLVESGGGLAQAGGSLRLSCAASGRIIYFNAMGWYRQAPGKEREFVAAISSSGNTYYADSVKGRFTISLDNAKNTVYLQMNSLKPEDTEVYYCDAAIYSYYPASGYKRYDYWGQGTQVTVSS | high polyreactivity |
| QVQLVESGGGLVQAGGSLRLSCAASGRTFDVYAMGWYRQAPGKERELVAAITSGGSTYYADSVKGRFTISRDNAKNTVYLQMNSLKPEDTAVYYCAKASSATRYVQLRQDYDYWGQGTQVTVSS | low polyreactivity |
| QVQLVESCGGLVQAGGSLRLSCAASGLTLGDNAMGLYRQAPGKERELVAAITSGSSTDYADSVKGRFTISRDNAKNTVYLQMNSLKPEDTAVYYCAKRIYRYQYRPENYWGQGTQVTVSS | low polyreactivity |
| QVQLVESGGGLVEAGGSLRLSCAASGRTFGTYPMGWYRQAPGKERELVAAISSRGGTTYYADSVKGRFTISRDNAKNTVYLQMNSLKPEDTEVYYCARASWSITTVLSTMDYWGQGTQVTVSS | high polyreactivity |
| QVQLVESGGGLVQAGGSLRLSCAASGGTFWLYTMGWYRQAPGKERELVAAITKSGGSTYYADSVKGRFTISRDNAKNTVYLQMNSLKPEDTAVYYCAARYSVYRDGYYWGQGTQVTVSS | high polyreactivity |
| QVQLVESGGGLVQAGGSLRLSCAASGRTFLTNPMGWYRQAPGKETELVAVITSSGGTYYADSVKGRFSISRDNAKNTVYLQMNSLKPEYTEVYYCNTRQQFTLTRGVFLHNYWGQGTQVTVSS | high polyreactivity |
| QVQLVESGGGLVQAGGSLRLSCAASGSILDPNAMGWYRQAPGKERELVASISRGDNTYYADSVKGRFTISRDNAKNTVYFQMNSLKPEDTAVYDCAADYSWVVWHDYWGQGTQVTVSS | low polyreactivity |
| QVHLVESGGGLVQAGGSLRLSCAASGIIISSYAMGWYRQAPGKERELVAAITWGGTRTNYADSVKGRFTISRDNAKNTVYLQMNSLKPEDTAVYYCAADKYLYGRLTRNFHYYYWGQGTQVTVSS | low polyreactivity |
| QVQIVESGGGLVQAGCSLRISCAASGRTFYRYAMGWYRQAPGKEREFVAAISWRGGSTRYADSVKGRFTISRDNAKNTVYLQLNSLKPEVTAVYYCNADPQRSVSYTDQYRPVWYGYWGQGTQVTVSS | high polyreactivity |
| QVQLVESGGGLVQAGGSLRLSCAASGSTFLFYAMGWYRQAPGKERELVAAISSSGTSTYYADSVKGRFTISRDNAKNTVYLQMNSLKPEDTAVYYCAAVDPYERYVYWGQGTQVTVSS | low polyreactivity |
| LVQLVESGGGLVQAGGSLRLSSAASGLIFGYNAKGWYRQAPGKERELVAASSWSGGRTYYADSVKGRFTISRDNAKNTVYLHMNILKPEDTAVYYCAAVVRHSYFRDDHWGQGTQVTVSS | high polyreactivity |
| QVQLVESGGGLVQAGGSLRLSCAASGYTFWDYTMGWYRQAPGKEREFVAAINWSGGSTYYADSVKGRFTISRDNAKKTVYLQMNSLKPEDTAVYYCAARRGGRRGYDYWGQGTQVTVSS | high polyreactivity |
| QDQLVESGGGLDQAGCTLRLSCAASVGTFRYYAMGWYRQAPGKERELVASISSGGSTNYADSVKGRFTISRDNAKNTVYLQMNSLKPEDTAVYYCNADPRRPVTSYDYWGQGTQVTVSS | low polyreactivity |
| QLQLVESGGGLVQAGGSLRLSCAASGIIFYWNAMGWYRQAPGKEREFVASISGSGGSTYADSVKGRFTISRDNAKNTVYLQMNSLKPEDTAVYYCAADFSNVGVQHDYYWGQGTQVTVSS | high polyreactivity |
| QVQLVESGGGLVQAGGSLRLSCAASGNTFAGNAMGWYRQAPGKERELVAAISRSGVTTRYADSVKGRFTISRDNAKNTVYLQMNSLKPEDTAVYYCNADPRLRQTRDYWGQGTQVTVSS | high polyreactivity |
